Experimental data reported in patent publication US8211429 (dated 2012).
Changes are numbered by the printed parent chain.

B1: YW107.4.52 (antibody, V domains shown)
VH: EVQLVESGGGLVQPGGSLRLSCAASGFTFSSYAMSWVRQAPGKGLEWVSQISPAGGYTNYADSVKGRFTISADTSKNTAYLQMNSLRAEDTAVYYCARELPYYRMSKVMDVWGQGTLVTVSS
VL: DIQMTQSPSSLSASVGDRVTITCRASQYFSSYLAWYQQKPGKAPKLLIYGASTLASGVPSRFSGSGSGTDFTLTISSLQPEDFATYYCQQYIRSPLTFGQGTKVEIKR
B2: YW107.4.63 (antibody, V domains shown)
VH: B1 VH
VL: B1 VL with F29L, T53S, L54S, A55E, R93S, S94V
B3: YW107.4.76a (antibody, V domains shown)
VH: B1 VH
VL: B1 VL with F29I, T53R, L54R, I92L, L96H
B4: YW107.4.38 (antibody, V domains shown)
VH: B1 VH
VL: B1 VL with F29L, T53S, L54R, I92L, L96I
B5: YW107.4.18 (antibody, V domains shown)
VH: B1 VH
VL: B1 VL with L54H, A55E
B6: YW107.4.58 (antibody, V domains shown)
VH: B1 VH
VL: B1 VL with F29I, T53S, L54R, I92K, R93S, L96R
B7: YW107.4.78 (antibody, V domains shown)
VH: B1 VH
VL: B1 VL with F29I, T53S, L54R, A55E, I92L, R93S, L96I
B8: YW107.4.41 (antibody, V domains shown)
VH: B1 VH
VL: B1 VL with Y28W, F29T, S30H, T53R, A55E, I92F, R93I, L96H
B9: YW107.4.66 (antibody, V domains shown)
VH: B1 VH
VL: B1 VL with F29I, T53S, L54R, R93V
B10: YW107.4.76b (antibody, V domains shown)
VH: B1 VH
VL: B1 VL with Y28W, F29V, S30H, T53S, L54R, I92Y, R93G, S94T, L96I
B11: YW107.4.17 (antibody, V domains shown)
VH: B1 VH
VL: B1 VL with F29T, S30H, T53S, L54R, I92Y, R93S, L96V
B12: YW107.4.54 (antibody, V domains shown)
VH: B1 VH
VL: B1 VL with Y28P, F29L, S30H, T53S, L54R, I92Y
B13: YW107.4.59 (antibody, V domains shown)
VH: B1 VH
VL: B1 VL with Y28R, F29I, S30H, T53S, L54R, I92Y, R93I
B14: YW107.4.20 (antibody, V domains shown)
VH: B1 VH
VL: B1 VL with Y28R, F29T, S30H, T53S, L54R, I92Y, R93G, L96H
B15: YW107.4.53 (antibody, V domains shown)
VH: B1 VH
VL: B1 VL with F29I, T53R, L54R, A55E, I92L, R93N
B16: YW107.4.42 (antibody, V domains shown)
VH: B1 VH
VL: B1 VL with Y28W, F29I, S30H, T53S, L54S, I92Y, R93S
B17: YW107.4.85 (antibody, V domains shown)
VH: B1 VH
VL: B1 VL with F29I, T53S, L54G, A55E, R93I, L96I
B18: YW107.4.51 (antibody, V domains shown)
VH: B1 VH
VL: B1 VL with Y28R, F29I, T53R, L54R, A55E, I92K, R93L
B19: YW107.4.33a (antibody, V domains shown)
VH: B1 VH
VL: B1 VL with F29I, T53R, L54R, R93G, L96I
B20: YW107.4.12 (antibody, V domains shown)
VH: B1 VH
VL: B1 VL with F29T, S30H, T53S, L54R, I92Y, R93S, L96I
B21: YW107.4.33b (antibody, V domains shown)
VH: B1 VH
VL: B1 VL with F29I, S30H, T53R, L54R, I92Y, R93G, S94T, L96H
B22: YW107.4.55 (antibody, V domains shown)
VH: B1 VH
VL: B1 VL with Y28L, F29T, S30H, T53S, L54R, I92Y, R93S

Target: T1, murine NRP1 (mouse, UniProt P97333)
T1 chain: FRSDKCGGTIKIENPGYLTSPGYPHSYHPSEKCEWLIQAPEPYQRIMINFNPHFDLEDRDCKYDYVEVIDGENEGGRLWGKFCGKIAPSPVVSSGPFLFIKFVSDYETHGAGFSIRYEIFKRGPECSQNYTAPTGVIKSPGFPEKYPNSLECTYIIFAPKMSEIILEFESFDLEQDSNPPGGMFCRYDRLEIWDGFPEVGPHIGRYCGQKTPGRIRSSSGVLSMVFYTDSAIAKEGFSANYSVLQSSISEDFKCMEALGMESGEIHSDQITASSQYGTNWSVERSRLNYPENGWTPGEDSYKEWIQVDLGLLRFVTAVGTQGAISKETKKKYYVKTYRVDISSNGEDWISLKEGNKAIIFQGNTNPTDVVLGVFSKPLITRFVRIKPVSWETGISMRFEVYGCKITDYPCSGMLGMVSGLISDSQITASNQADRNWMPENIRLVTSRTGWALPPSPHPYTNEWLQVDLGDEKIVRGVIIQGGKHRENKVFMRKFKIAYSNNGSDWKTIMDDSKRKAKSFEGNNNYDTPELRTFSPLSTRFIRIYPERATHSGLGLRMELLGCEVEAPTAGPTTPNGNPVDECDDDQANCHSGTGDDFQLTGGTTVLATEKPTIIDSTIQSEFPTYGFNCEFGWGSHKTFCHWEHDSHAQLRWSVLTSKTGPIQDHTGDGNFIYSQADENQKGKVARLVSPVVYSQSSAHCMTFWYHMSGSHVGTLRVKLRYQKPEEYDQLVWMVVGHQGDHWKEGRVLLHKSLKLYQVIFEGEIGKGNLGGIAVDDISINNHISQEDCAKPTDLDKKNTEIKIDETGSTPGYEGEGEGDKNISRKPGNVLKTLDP
Experiment: SPR 25C

Binder | Kd [nM]
B1 | 1.2
B2 | 0.8
B3 | 31
B4 | 3.2
B5 | 2.1

Target: T2, human NRP1 (human, UniProt O14786)
Experiment: competition phage ELISA

Binder | IC50 [nM]
B6 | 0.73
B7 | 0.3
B8 | 0.43
B1 | 0.22
B9 | 0.45
B10 | 0.34
B11 | 0.24
B2 | 0.15
B3 | 0.23
B12 | 0.84
B13 | 1.8
B14 | 0.45
B15 | 0.3
B16 | 0.81
B4 | 0.28
B17 | 0.44
B18 | 2
B19 | 0.31
B20 | 0.1
B21 | 0.58
B22 | 0.93

Target: T2, human NRP1
Experiment: SPR 25C

Binder | Kd [nM]
B1 | 0.9
B2 | 0.8
B3 | 1.4
B4 | 1.8
B5 | 1

Target: T1, murine NRP1
Experiment: competition phage ELISA

Binder | IC50 [nM]
B6 | 3.5
B7 | 1.7
B8 | 5.5
B1 | 1.1
B9 | 2.6
B10 | 3.9
B11 | 6
B2 | 0.8
B3 | 0.8
B12 | 2.7
B13 | 26
B14 | 33
B15 | 1.7
B16 | 1.2
B4 | 1.4
B5 | 1.1
B17 | 4
B18 | 12
B20 | 3.4
B21 | 7.8
B22 | 2
